Patent US20210107981A1 (SUTRO BIOPHARMA, published 2021)

Tests used:
[1] = target: T1, Human PD-1 (ACROBiosystems, Inc., Catalog No. PD1-H5221) (human, UniProt Q15116 25-167); experiment: SPR (Biacore)
T1 construct: Bought recombinant protein; also called huPD1-His; PD-1-his; not shown: His tag of the bought protein (huPD1-His)

[2] = target: T2, cynomolgus PD-1 (ACROBiosystems, Inc., Catalog No. PD1-H5254) (cynomolgus, UniProt B0LAJ3 25-167); experiment: SPR (Biacore)
T2 construct: also called cyno PD-1
T2 sequence (B0LAJ3 entry or part of it limits assumed, form in doubt): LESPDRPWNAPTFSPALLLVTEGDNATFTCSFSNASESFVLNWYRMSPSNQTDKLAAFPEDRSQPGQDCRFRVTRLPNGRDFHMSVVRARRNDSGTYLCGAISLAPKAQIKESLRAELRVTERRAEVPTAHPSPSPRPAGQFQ

[3] = target: T1, Human PD-1 (ACROBiosystems, Inc., …); experiment: ELISA, binding of human PD-1 (coated)
[4] = target: T3, human PD-1 expressed on the cell surface (CHO-PD1 cells) (human, UniProt Q15116 25-288); experiment: FACS cell binding, CHO cell line overexpressing human PD-1
T3 construct: Also used here as the target for native PD-1 on human PBMC / T cells in the functional (IFN-g) assays; also called CHO cell line overexpressing human PD-1; Cell-Surface Human PD-1 antigen
T3 sequence (Q15116 25-288 limits assumed): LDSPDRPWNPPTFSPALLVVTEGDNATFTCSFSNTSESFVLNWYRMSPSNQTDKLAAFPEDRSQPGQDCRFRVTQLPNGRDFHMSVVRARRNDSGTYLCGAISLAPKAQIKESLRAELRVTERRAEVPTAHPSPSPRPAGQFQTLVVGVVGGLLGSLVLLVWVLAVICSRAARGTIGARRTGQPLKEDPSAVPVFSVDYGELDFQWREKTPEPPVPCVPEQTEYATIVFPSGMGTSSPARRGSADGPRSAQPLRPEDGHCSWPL
Method: Antibodies with expression levels >250 nM and mouse IgGs from hybridomas were tested in a fluorescence-activated cell sorting (FACS) cell-binding assay. Chinese Hamster Ovary (or CHO) Cells stably expressing the human target molecule PD-1 on the cell surface (CHO-PD1) were used to screen for binding. Parental CHO cells were used as a negative control to determine background-binding levels. Parental CHO cells and CHO-PD1 cells were cultured in RPMI w/10% FCS penicillin/streptomycin (Pen/Strep) and glutamine (or Gln) and split every 3-4 days at 10⁵ cells/mL.
A mix of parental CHO cells and CHO-PD1 cells was prepared as follows: Parental CHO cells were washed 2× in PBS then incubated in PBS containing 1 μM CellTrace™ Oregon Green488® (Life Technologies) at 37° C. for 30 minutes. Cells were then washed 2× with RPMI w/10% fetal calf serum (FCS), washed 2× with FACS buffer (PBS w/2% FCS), suspended thoroughly in ice-cold FACS buffer at a final concentration of 2×10⁶ cells/mL and kept on ice. CHO-PD1 cells were similarly washed with FACS buffer and kept on ice at 2×10⁶ cells/mL. Parental CHO cells and CHO-PD1 cells were then mixed to obtain a 1:1 cell suspension and seeded at 100 μL per well on 96 well polypropylene plates. Plates were spun at 1500 rpm for 5 minutes and cell pellets were suspended in 50 μL FACS buffer containing 6-12 point dilutions of anti-PD-1 variants starting from concentrations of −100-200 nM antibody, dispensed using BioMek FX (Beckman Coulter). Cells were then incubated on ice for 1 hr, washed with FACS buffer and incubated for 1 hr on ice with 50 μL FACS buffer containing 2.5 μg/ml R-phycoerythrin-conjugated goat anti-Human IgG (Jackson ImmunoResearch) or AF647-conjugated goat anti-mouse IgG (Life Technologies) dispensed using BioMek FX (Beckman Coulter). Cells were then washed 2× with FACS buffer and fixed for 10 minutes in 200 μL PBS with 2% paraformaldehyde (PFA) prior to fluorescence detection. Samples were acquired using a Becton Dickinson LSRII FACS. Mean Fluorescence Intensity of PD-1 antibody binding was analyzed using FlowJo® software (Tree Star, Inc.).

[5] = target: T3, human PD-1 expressed on the cell …; experiment: cell-based FACS competition on CHO-PD1 cells; competitor rhPDL1-Fc
Method: (§1) CHO-PD1 cells were cultured in RPMI with 10% FCS Pen/Strep and Gln and split every 3-4 days at 10⁵ cells/ml. Cells were washed 2× with FACS buffer (PBS w/2% FCS), […] at a final concentration of 1×10⁶ cells/ml and seeded at […] per well on 96 well polypropylene plates. Plates were spun at 1500 rpm for 5 minutes and cell pellets were suspended in 50 μL FACS buffer containing 8 point 1:3 dilutions (2× concentrated) of anti-PD-1 antibody variants, starting from high concentration of −200 nM. […] Cell were then incubated on ice for 1 hr, washed with FACS buffer and incubated for 1 hr on ice with 50 μl FACS buffer containing 2.5 μg/ml R-phycoerythrin-conjugated anti-human IgG (Jackson ImmunoResearch). Cells were then washed 2× with FACS buffer and fixed for 10 minutes in 200 μl PBS with 2% PFA prior to acquisition. Samples were acquired using a Becton Dickinson LSRII FACS.

[6] = target: T3, human PD-1 expressed on the cell …; experiment: cell-based FACS competition on CHO-PD1 cells; competitor rhPDL2-Fc
Method: as §1

[7] = target: T1, Human PD-1 (ACROBiosystems, Inc., …); experiment: competition ELISA on coated PD-1; competitor PD-L1-Fc (ACROBiosystems)
Method: PD-1 (ACROBiosystems, Inc.) was adsorbed on 384-well white Maxisorp® plates (Nunc) at 2 μg/mL in sodium bicarbonate buffer (pH 8.9) and incubated at 30° C. for 1 hour or overnight at 4° C. The plate was washed 3 times with PBS pH 7.4 with 0.05% Tween20 and blocked with 2% bovine serum albumin (BSA) in PBS pH 7.4+0.1% Tween20 for 1 hour at 30° C.
After a 1 hour incubation at 30° C., the plate was washed and incubated with HRP-conjugated anti-mouse Fc (Jackson Laboratories), followed by detection with SuperSignal™ Pico Chemiluminescent Substrate (Thermo Pierce). Luminescence was detected on a SpectraMax® M5 plate reader (Molecular Devices).

T1 sequence (Q15116 25-167 limits assumed): as the sequence (B0LAJ3 entry or part of it limits assumed, form in doubt) above, with E2D, A10P, L19V, A35T, R75Q counted along it

| Binder | Kd [1] [nM] | Kd [2] [nM] | EC50 [3] [nM] | Kd [4] [nM] | IC50 [5] [nM] | IC50 [6] [nM] | IC50 [7] [nM] |
| --- | --- | --- | --- | --- | --- | --- | --- |
| 1B10 murine hybridoma IgG (antibody, V domains shown, Mouse IgG from hybridoma; also called m1B10) VH: DVQLQESGPGLVKPSQSLSLTCTVTGHSITSDYAWNWIRQFPGNKLEWMGYISYSGRTSYNPSLTSRISITRDTSKNQFFLQLNSVTTEDTATYYCARGYALDYWGQGTSVTVSS VL: QIVLSQSPAILSASPGEKVTMTCRTSSSVNYMHWFQQKPGSSPKPWIYATSKLASGVPARFSGSGSGTSYSLTISRVEAEDAATYFCQQWISDPWTFGGGTKLEIK | 10.4 | 2.56 | 1.71 | 3.2 | 5.96 | 0.56 | 9.47 |
| 1E9 murine hybridoma IgG (antibody, V domains shown, Mouse IgG from hybridoma; also called m1E9) VH: EVKLVESGGGLVSPGGSLKLSCAASGFTFSTFGMSWVRQTPEKRLEWVATISGGGSDTYYPDSVQGRFIISRYNAKNNLYLQMNSLRPEDTALYYCARQGYDVYSWFAYWGQGTLVTVSA VL: not shown | 9.9 | 2.54 | 0.33 | 2.9 | 5.86 | 0.58 | 0.89 |

The next lines start with the values.

| Kd [1] [nM] | Kd [2] [nM] | EC50 [3] [nM] | Kd [4] [nM] | IC50 [5] [nM] | IC50 [6] [nM] | IC50 [7] [nM] | Binder |
| --- | --- | --- | --- | --- | --- | --- | --- |
| 0.913 | 0.561 | 0.47 | 1.39 | 1.99 | 0.01 | 1.43 | 4B10 murine hybridoma IgG (antibody, V domains shown, Mouse IgG from hybridoma; also called m4B10) VH: EVKLVESGGGLVKPGGSLKLSCAASGFTFSTYGMSWVRQTPEKRLQWVATISGGGSNTYYSDSVKGRFTISRDNAKNNLYLQMSSLRSEDTALYYCARQRDSAWFASWGQGTLVTVSA VL: not shown |
| 0.252 | 0.195 | 0.59 | 1.34 | 2.53 | 0.18 | 1.32 | 10B4 murine hybridoma IgG (antibody, V domains shown, Mouse IgG from hybridoma; also called m10B4) VH: QVQLQQSGAELMKPGASVKMSCKTTGYIFSSYWIGWVKQRPGHGLEWIGKIFPGSGSADYNENFKGKATFTVDTSSNTAYMQLSSLTSEDSAVYYCARGYGNYLYFDVWGAGTTVTVSS VL: NIVMTQTPKFLLVSAGDRITITCKASQSVSDDVAWYQQKPGQSPKLLISYAFKRYIGVPDRFTGSGYGTDFTFTISTVQAEDLAVYFCQQNYNSPYTFGGGTKLELKR |
